The values below come from article PMC5147519.

For the assay, the target named is K18 WT tau (tau four-repeat domain), poly-histidine tag intact (human). The experiment in a line: SDS-PAGE and Western blot (SDS-resistant dimers and aggregates); soluble and pellet fractions of IPTG-induced E. coli, 15% Tris-glycine SDS-PAGE, blot with polyclonal anti-human tau A0024. On the technique in general: In western blotting, separated proteins are transferred to a membrane and probed.

Turning to “K18 WT tau (tau four-repeat domain), poly-histidine tag intact (domain or fragment)”, the stoichiometry N came to 2.

In general, stoichiometry N refers to a count of units in the complex or per binding partner.
